B1: TPR t1 (parent)
chain: GACCAAUCUGCCCUCAGAGCUCGAGAACAUCUUCGGAUGCAGAGGAGGCAGGCUUCGGUGGCGCGAUAGCGCCAACGUCCUCAACCUCCAAUGCAUCCCACCACAUGAUGAUGCCUGAAGAGCCUUGGUUUUUUG

Variants of: B1
Assay: polymerase ribozyme fitness, log enrichment relative to wild type (log ratio); higher = more active; in vitro selection for triplet polymerase activity
How it was run: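 Mutant libraries were PCR-built and transcribed for each subunit of a heterodimeric triplet polymerase ribozyme and selected for one round in triplicate at −7 °C, frozen, before gel excision of extended constructs and streptavidin-bead capture. Input and output libraries were Illumina-sequenced, keeping genotypes with ≥10 input reads and ≥1 read per output. Fitness is a logarithmic ratio of genotype to wild-type enrichment, in base 2, using inverse-variance-weighted replicate averages.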

Compared with GACCAAUCUGCUCUCAGAGCUCGAGAACAUCUUCGGAUGCAGAUGUGGCAGGCUUCGGUGGCGCGAUAGCGCCAACGUCCUCAAACUCCAAUGCAUCCCACCACAUGAUGAUGCCUGAAGAGCCUUGGUUUUUUG [C12U G44U A46U C85A], GACCAAUCUGCUCUCAGAGCUCGAGAACAUCUUCGGAUGCAGAGGAGGCAGACUUCGGUGGCGCGAUAGCGCCAACGUCCUCAACCUCCAAUGCAUCCCACCACAUGAUGAUGCCUCAAGAGCCUUGGUUUUUUG [C12U G52A G117C] is higher in “polymerase ribozyme fitness (log ratio)” value: -4.14 for the first, -0.882 for the second.

Compared with GACCAAUCUGCUCUCAGAGCUCGAGAACAUCUUCGGAUGCACAGGAGGCAGGCUUCGGUGGCGCGAUAGCGCAAACGUCCUCAACCUCCAAUGCAUCCCACCACAUGAUGAUGCCUGAAGAACCUUGGUUUUUUG [C12U G42C C73A G122A], GACCAAUCUGCUCUCAGAGCUCGAGAACAUCUUCGGAUGCAGAGGAGGCAGUGUUCGGUGGCGCGAUAGCGCCAACGGCCUCAACCUCCAAUGCAUCCCACCACAUGAUGAUGCCUGAAGAGCCUUGGUUUUUUG [C12U G52U C53G U78G] is higher in “polymerase ribozyme fitness (log ratio)” value: -0.687 for the first, -0.0807 for the second.

First: GACCAAUCUGCUCUCAGAUCUCGAGAACAUCUUCGGAUGCAGAGGAGGCAGGCUUCGGUGGCGCGAUAGCGCCAACGUCCUCAACCUCCAAUGCAUCCCACCACAUGAUGAUGCCUGAAGAGCCUUGGUUUUUUG [C12U G19U]
Second: GACCAAUCUGCUCUCAGAGCUCGAGAACAUCUUCGGAUGCAGAGGAGCCAGGCUUCGGUGGCGCGAUAGCGGCAACGUCCUCAACCUCCAAUGCAUCCCACCACAUGAUGAUGCCUGAAGAGCCUUGGUUGUUUG [C12U G48C C72G U131G]
The “polymerase ribozyme fitness (log ratio)” value of the first is lower: -2.49 for the first, -1.72 for the second.

Compared with GACCAAUCUGCUCUCAGAGCUCGAGAACAUCUUCGGAUGCAGAGGAGGCAGGCUUCGGUGGCGCGAUAGCGCCAACGUCCUCAACAUCCAAUGCAUCCCACCACAUGAUGAUGCCUGAAGAGCCUUGGUUUUUUG [C12U C86A], GACCAAUCUGCUCUCAGAGCUCGAGAACAUCUUCGGAUGCAUAGGAGGCAGGCUUCGGUGGCGCGAUAGCGCAAACGUCCUCAACCUCCAAUGCAUCCCACCACAUGAUGAAGCCUGAAGAGCCUUGGUUUUUUC [C12U G42U C73A U112A G135C] is lower in “polymerase ribozyme fitness (log ratio)” value: 0.101 for the first, -0.178 for the second.

Compared with GACCAAUCUGCUCUCAGAGCUCGAGAACAUCUUCGGAUGCAGAGGAGGCAGGCUUCGGUCGCGCGAUAGCGCCAACGUCCUCAACCUCCAAUGCAUCCCACCACAUGAUGAUGCCUGAAGAGCCUUGGUUUUUUG [C12U G60C], GACCAAUCUGCUCUCAGAGCUCGAGAACAUCUUCGGAUGCAGAGGAGGCAGGCUUCGGUAGCGCGAUAGCGCCAACGUCCUCAACCUCCAAUGCAUCCCACCACAUGAUGAUGCCUGAAGAGCCUUGGUUUUUUG [C12U G60A] is lower in “polymerase ribozyme fitness (log ratio)” value: 0.537 for the first, -0.607 for the second.

First: GACCAAUCUGCUCUCAGAGCUCGAGAACAUCUUCGGAUUCAGAGGAGGCAGGCUACGGUGGCGCGAUAGCACCAACGUCCUCAACCUCCAAUGGAUCCCACAACAUGAUGAUUCCUGAAGAGCCUUGGUUUUUUG [C12U G39U U55A G71A C94G C102A G113U]
Second: GACCAAUCUGCUCUCAGAGCUCGAGAACAUCUUCGGAUGCAGAUGAGGCAGGCUUCGGUGGCGCGAUAGCGCCAACGUCCUCAACCUCCAAUGCAUCCCACCACAUGAUGAUGCCUGAAGAGCCUUGGUUUUUUG [C12U G44U]
The “polymerase ribozyme fitness (log ratio)” value of the first is lower: -6.81 for the first, -0.985 for the second.

First: GACCAAUCUGCUCUCAGAGCUCGAGAACAUCUUCGGAUGCAGAGCAGGCAGGCUUCGGUGGCGCGAUAGCGCCAACGUCCUCAACCUCCAAUGCAUCCCACAACAUGAUGAUGCCUGAAGAGCCUUGGUUUUUUG [C12U G45C C102A]
Second: GACCAAUCUGCUCUCAGAGCUCGAGAACAUCUUCGGAUGCACAGGAGGCAGGCUUCGGUGGCGCGAUAGCGUCAACGUCCUCAACCUCCAAUGCAUCCCACCACAUGAUGAUGCCUGAAGAGCCUUGGUUUUUUG [C12U G42C C72U]
The “polymerase ribozyme fitness (log ratio)” value of the first is lower: -2.34 for the first, -1.28 for the second.

Compared with GACCAAUCUGCUCUCACAGCUCGAGAACAUCUUCGGAUGCAGAGGAGGUAGGCUUCGGUGGCGCGAUAGCGCCAACGUCCUGAACCUCCAAUGUAUCCGACCACAUGAUGAUGCCUGAAGAGACUUGGUUUUUUG [C12U G17C C49U C82G C94U C99G C123A], GACCAAUCUGCUCUCAGAGCUCGAGAACAUCUUCGGAUGCAGAUGAGGCAGGCUUCGGUGGCGCGAUAGCGGCAACGUCCUCAACCUCCAAUGCAUCCCACCACAUGAUGAUGCCUGAAGAGCCUUACUUUUUUG [C12U G44U C72G G127A G128C] is higher in “polymerase ribozyme fitness (log ratio)” value: -7.59 for the first, -4.51 for the second.

Going from GACCAAUCUGCUCUCAGAGCUCGAGAACAUCUUCGGAUGCAGAGGAGGCAGGCUUCGGUGGCGCGAUAGCGCCAACGUCCUCAACCUCCAAUGCAUCGCACCACAUGAUGAUGCCUGAAGAGCCUUGGUUUUUUG [C12U C98G] to GACCAAUCUGCUCUCAGAGCUCGAGAACAUCUUCGGAUGCAGAGGAGGCAGGCUUCGGUGGCGCGAUAGCGCCAACGUCCUCAACCUCCAAUGCAUCUCACCACAUGAUGAUGCCUGAAGAGCCUUGGUUUUUUG [C12U C98U], the “polymerase ribozyme fitness (log ratio)” value rises from -4.85 to -0.736.

Going from GACCAAUCUGCUCUCAGAGCUCGAGAACAUCUUCGGAUGCAGAGGAGGCAGGCUUCGGUGGCGCGAUAGCGCCAACGUCCUCAACCUCUAAUGCAUCCCACCACAUGAUGAUGCCUGAAGAGCCUUGGUUUUUUG [C12U C89U] to GACCAAUCUGCUCUCAGAGCUCGAGAACAUCUUCGGAUGCAGAGGAGGCACGCUUCGGUGGCGCGAUAGCGCCAACGUUCUCAACCUCCAAUGCAUCCCACCACAUGAUGAUGCCUGAAGAGCCUUGGUUUUUUG [C12U G51C C79U], the “polymerase ribozyme fitness (log ratio)” value falls from 0.399 to -2.71.

With GACCAAUCUGCUCUCAGAGCUCGAGAACAUCUUCGGAUGCAAAGGAGGCAGGCUUCGGUGGCGCGAUAGCGCCAACGUCCUCAACCUCCAAUGCUUCCCACCACAUGAUGAUGCCUGAAGAGCCUUGGUUUUUUG [C12U G42A A95U] the “polymerase ribozyme fitness (log ratio)” value was -1.64.
